Experimental data published in patent US20250129165A1.
pKd: −log10 of the molar value.

How the values were obtained:
[1] = target: human BTN3A as expressed on human cells (PBMCs, Daudi Burkitt's lymphoma cells, AML cells, monocytes) (human) (UniProt O00481); experiment: cell-based or functional assay
[2] = target: cynomolgus BTN3A as expressed on cynomolgus PBMCs (cynomolgus); experiment: flow cytometry on cynomolgus PBMCs
[3] = target: human BTN3A1 antigen (Sino Biological cat. no. 15973-H08H) (human) (UniProt O00481); experiment: SPR, Biacore T200 multi-cycle kinetics; antibody captured on Protein A, BTN3A1 as analyte
[4] = target: human BTN3A as expressed on human cells (PBMCs, Daudi Burkitt's lymphoma cells, AML cells, monocytes) (human) (UniProt O00481); experiment: flow cytometry on Daudi Burkitt's lymphoma cells
[5] = target: human BTN3A as expressed on human cells (PBMCs, Daudi Burkitt's lymphoma cells, AML cells, monocytes) (human) (UniProt O00481); experiment: flow cytometry on human PBMCs

human BTN3A1 antigen (Sino Biological cat. no. 15973-H08H) (human), sequence (O00481 30-254 limits assumed): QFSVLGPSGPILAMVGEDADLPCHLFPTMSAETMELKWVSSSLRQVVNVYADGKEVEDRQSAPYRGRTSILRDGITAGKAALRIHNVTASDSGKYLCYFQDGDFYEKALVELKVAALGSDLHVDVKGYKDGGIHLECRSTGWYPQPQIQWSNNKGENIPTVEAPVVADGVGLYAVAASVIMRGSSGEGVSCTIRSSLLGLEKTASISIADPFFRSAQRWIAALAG

Functional assay (AML resistant) (γδT cell-based, EC50, µg/mL) [1]: 0.18 µg/mL | Functional assay (AML sensitive) (γδT cell-based, EC50, µg/mL) [1]: 0.05 µg/mL | Functional assay (Daudi) (γδT cell-based, EC50, µg/mL) [1]: 0.02 µg/mL | Vγ9Vδ2 T cell degranulation with PBMCs from C. burnetii patients, 20.1 at 10 µg/ml [1]: 24.1% | Vγ9Vδ2 T cell degranulation with PBMCs from healthy donors, 20.1 at 10 µg/ml [1]: 3.24% | Vγ9Vδ2 T cell degranulation, Mean % CD107+ cells, monocytes infected with C. burnetii Guiana, 20.1 at 10 µg/ml (isotype 37.23) (% CD107+ cells) [1]: 71.5 | Vγ9Vδ2 T cell degranulation, Mean % CD107+ cells, monocytes infected with C. burnetii NM1, 20.1 at 10 µg/ml (isotype 42.1) (% CD107+ cells) [1]: 67.2 | Vγ9Vδ2 T cell degranulation, Mean % CD107+ cells, non stimulated monocytes, 20.1 at 10 µg/ml (isotype 8.59) (% CD107+ cells) [1]: 45.8 | EC50 [2]: 4.06 µg/mL | pKd [3]: 9.63 | EC50 [4]: 1.19 µg/mL | EC50 [5]: 3.02 µg/mL
Substance: mAb 20.1, parent murine antibody
